According to patent US20070254831A1 (published 2007):
Like-named read-outs stand apart in the source and are kept apart here. Bridge positions count the residues as written; N and C are the ends. Square brackets hold non-standard residues; d marks the D form. Ends that are not written are not given here. NMeL = CN[C@@H](CC(C)C)C(=O)O; Pen = CC(C)(S)[C@H](N)C(=O)O; Sar = CNCC(=O)O

What was measured:
soluble human FcRn [1] = target: T1, soluble human FcRn (human, UniProt P55899 24-297; P61769 21-119, biotinylated (Sulfo-NHS-LC-Biotin) in the ELISA; amine-coupled to CM5 chip in SPR); assay: ELISA, competitor human IgG
T1 construct: also called shFcRn; biotinylated shFcRn
T1 sequence (P55899 24-297 limits assumed, chain 1 of 2): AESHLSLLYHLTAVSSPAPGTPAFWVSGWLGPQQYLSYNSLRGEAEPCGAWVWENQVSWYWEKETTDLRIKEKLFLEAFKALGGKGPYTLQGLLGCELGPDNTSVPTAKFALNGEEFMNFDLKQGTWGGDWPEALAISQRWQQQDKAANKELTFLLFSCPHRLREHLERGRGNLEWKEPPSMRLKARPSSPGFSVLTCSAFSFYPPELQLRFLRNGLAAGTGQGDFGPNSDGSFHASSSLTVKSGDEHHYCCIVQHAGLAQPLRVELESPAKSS
T1 sequence (P61769 21-119 limits assumed, chain 2 of 2): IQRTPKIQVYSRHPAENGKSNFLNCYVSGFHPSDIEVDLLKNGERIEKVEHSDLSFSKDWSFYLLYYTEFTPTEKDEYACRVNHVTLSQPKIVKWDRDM
Procedure: (§1) The wells were coated with 100 μl/well of 1 μg/ml biotinylated-shFcRn in Buffer A. The plate was sealed and incubated at 37° C. for 2 hours. Afterwards, the plate washed with 200 μl/well of Buffer B (Buffer B: 100 mM MES pH 6, 150 mM NaCl, 0.5% BSA IgG-free (Jackson ImmunoResearch, West Grove, Pa.), 0.05% Tween-20). […] To allow for mixing, the plate was rocked for 2 minutes, sealed and incubated at 37° C. for 2 hours. […] The plate was covered, incubated for 30 minutes at room temperature and washed 4 times with 200 μl/well of ice-cold buffer B. SureBlue TMB substrate solution (100 μl/well, KPL, Gaithersburg, Md.) was added and the plate was allowed to incubate at room temperature until color developed, which took 5 to 10 minutes. Once color developed, 100 μl/well of TMB stop solution (KPL, Gaithersburg, Md.) was added and the absorbance was measured at 450 nm. The data was plotted as absorbance vs. peptide concentration to derive the inhibitory concentration 50% (IC₅₀) values.

soluble human FcRn [2] = target: T1, soluble human FcRn; assay: SPR, pH 7.4
Procedure: (§2) The following steps were performed to cross-link soluble human or cynomolgus FcRn to the dextran surface of a CM5 sensor chip (Biacore AB, Uppsala, Sweden) by an amine coupling reaction involving 1-ethyl-(3-dimethylaminopropyl)-carbodiimide hydrochloride (EDC) (Biacore AB, Uppsala, Sweden) and N-hydroxysuccinimide (NHS) (Biacore AB, Uppsala, Sweden) as recommended by Biacore (BIAapplications Handbook, version AB, section 4.2, Biacore AB, Uppsala, Sweden). […] Residual sites on the FcRn flow cell were blocked with 1 M ethanolamine hydrochloride pH 8.5 (Biacore AB, Uppsala, Sweden). A control flow cell was blocked with ethanolamine for reference subtraction. For analysis of the monomeric peptides, FcRn was coated to a final density of 4000-5000 response units (RU). For analysis of the peptide dimers, FcRn was coated to a density of 2000-2500 RU. All SPR measurements were performed using a BIACORE 3000 Instrument (Biacore AB Uppsala, Sweden). For measurements done at either pH 6 or pH 7.4, experiments were performed in 50 mM phosphate, 100 mM sodium chloride, 0.01% surfactant P20 (Biacore AB, Uppsala, Sweden).
(§3) Ten, 2-fold dilutions of the peptide were injected over the FcRn-CM5 chip at a rate of 20 μl/min for 2 min. The peptide was dissociated from the chip for 2.5 minutes with buffer. Any remaining peptide was removed from the chip with a 30 second injection of HBS-P buffer (Biacore AB, Uppsala, Sweden) at a rate of 30 μl/min. Sensorgrams were generated and analyzed using BiaEval software version 3.1 (Biacore AB, Uppsala, Sweden). The equilibrium RU observed for each injection was plotted against concentration. The equilibrium KD values were derived by analysis of the plots using the steady state affinity model included in the BiaEval software.

soluble human FcRn [3] = target: T1, soluble human FcRn; assay: SPR, pH 6
soluble human FcRn [4] = target: T1, soluble human FcRn; assay: SPR, pH 6; remark: listed apart in the source
Procedure: as §2
(§4) Ten, 2-fold dilutions of the peptide were injected over the FcRn-CM5 chip at a rate of 20 μl/min for 2 min. The peptide was dissociated from the chip for 2.5 minutes with buffer. […] Sensorgrams were generated and analyzed using BiaEval software version 3.1 (Biacore AB, Uppsala, Sweden). […]

soluble human FcRn [5] = target: T1, soluble human FcRn; assay: ELISA, competitor human IgG; remark: listed apart in the source
Procedure: as §1

soluble human FcRn [6] = target: T1, soluble human FcRn; assay: SPR, pH 7.4; remark: listed apart in the source
Procedure: as §2, §4

soluble human FcRn [7] = target: T1, soluble human FcRn; assay: ELISA, competitor human IgG; remark: listed apart in the source
Procedure: as §1

soluble human FcRn [8] = target: T1, soluble human FcRn; assay: SPR, pH 7.4; remark: listed apart in the source
Procedure: as §2, §4

soluble human FcRn [9] = target: T1, soluble human FcRn; assay: SPR, pH 6; remark: listed apart in the source
Procedure: as §2, §3

soluble human FcRn [10] = target: T1, soluble human FcRn; assay: SPR, pH 7.4; remark: listed apart in the source
Procedure: as §2, §4

soluble human FcRn [11] = target: T1, soluble human FcRn; assay: ELISA, competitor human IgG; remark: listed apart in the source
Procedure: as §1

soluble human FcRn [12] = target: T1, soluble human FcRn; assay: SPR, pH 6; remark: listed apart in the source
Procedure: as §2, §4

soluble human FcRn [13] = target: T1, soluble human FcRn; assay: SPR, pH 6; remark: listed apart in the source
Procedure: as §2, §4

soluble human FcRn [14] = target: T1, soluble human FcRn; assay: ELISA, competitor human IgG; remark: listed apart in the source
Procedure: as §1

soluble human FcRn [15] = target: T1, soluble human FcRn; assay: SPR, pH 7.4; remark: listed apart in the source
Procedure: as §2, §4

soluble human FcRn [16] = target: T1, soluble human FcRn; assay: ELISA, competitor human IgG; remark: listed apart in the source
Procedure: as §1

soluble human FcRn [17] = target: T1, soluble human FcRn; assay: ELISA, competitor human IgG; remark: listed apart in the source
Procedure: as §1

soluble human FcRn [18] = target: T1, soluble human FcRn; assay: SPR, pH 7.4; remark: listed apart in the source
Procedure: as §2, §4

soluble human FcRn [19] = target: T1, soluble human FcRn; assay: SPR, pH 6; remark: listed apart in the source
Procedure: as §2, §3

soluble human FcRn [20] = target: T1, soluble human FcRn; assay: ELISA, competitor human IgG; remark: listed apart in the source
Procedure: as §1

soluble human FcRn [21] = target: T1, soluble human FcRn; assay: SPR, pH 7.4; remark: listed apart in the source
Procedure: as §2, §4

soluble human FcRn [22] = target: T1, soluble human FcRn; assay: SPR, pH 6; remark: listed apart in the source
Procedure: as §2, §3

B1: Peptide No. 177 (peptide)
peptide: QRFVTGHFG[dP]WYPANGP-NH2
modifications: N-terminus assumed
SMILES: CC(C)[C@H](NC(=O)[C@H](Cc1ccccc1)NC(=O)[C@H](CCCNC(=N)N)NC(=O)[C@@H](N)CCC(N)=O)C(=O)N[C@H](C(=O)NCC(=O)N[C@@H](Cc1c[nH]cn1)C(=O)N[C@@H](Cc1ccccc1)C(=O)NCC(=O)N1CCC[C@@H]1C(=O)N[C@@H](Cc1c[nH]c2ccccc12)C(=O)N[C@@H](Cc1ccc(O)cc1)C(=O)N1CCC[C@H]1C(=O)N[C@@H](C)C(=O)N[C@@H](CC(N)=O)C(=O)NCC(=O)N1CCC[C@H]1C(N)=O)[C@@H](C)O
Work on B1 yielded an IC50 (soluble human FcRn [1]) of 52 µM, a Kd (soluble human FcRn [2]) of 96 µM and a Kd (soluble human FcRn [3]) of 5.8 µM.

B2: Peptide No. 122 (peptide)
peptide: QRFDTGHFGGLYPKNGP
modifications: also: bromoacetylated peptide joined to a SATP-derivatized peptide (dimer), further groups not given here
For B2, the Kd (soluble human FcRn [4]) was 0.006 µM, the IC50 (soluble human FcRn [5]) was 0.97 µM and the Kd (soluble human FcRn [6]) was 0.12 µM.

B3: Peptide No. 80 (peptide)
peptide: QRFKTGHFGGLYPDNGP-NH2
modifications: lactam 4-14; N-terminus assumed
SMILES: CC(C)C[C@@H]1NC(=O)CNC(=O)CNC(=O)[C@H](Cc2ccccc2)NC(=O)[C@H](Cc2c[nH]cn2)NC(=O)CNC(=O)[C@H]([C@@H](C)O)NC(=O)[C@@H](NC(=O)[C@H](Cc2ccccc2)NC(=O)[C@H](CCCNC(=N)N)NC(=O)[C@@H](N)CCC(N)=O)CCCCNC(=O)C[C@@H](C(=O)N[C@@H](CC(N)=O)C(=O)NCC(=O)N2CCC[C@H]2C(N)=O)NC(=O)[C@@H]2CCCN2C(=O)[C@H](Cc2ccc(O)cc2)NC1=O
B3 was tested, and the IC50 (soluble human FcRn [7]) was 60 µM and the Kd (soluble human FcRn [8]) was 52 µM.

B4: Peptide No. 105 (peptide)
peptide: QRFDTGHFG[dA]LYPKNGP-NH2
modifications: lactam 4-14; N-terminus assumed
SMILES: CC(C)C[C@@H]1NC(=O)[C@@H](C)NC(=O)CNC(=O)[C@H](Cc2ccccc2)NC(=O)[C@H](Cc2c[nH]cn2)NC(=O)CNC(=O)[C@H]([C@@H](C)O)NC(=O)[C@@H](NC(=O)[C@H](Cc2ccccc2)NC(=O)[C@H](CCCNC(=N)N)NC(=O)[C@@H](N)CCC(N)=O)CC(=O)NCCCC[C@@H](C(=O)N[C@@H](CC(N)=O)C(=O)NCC(=O)N2CCC[C@H]2C(N)=O)NC(=O)[C@@H]2CCCN2C(=O)[C@H](Cc2ccc(O)cc2)NC1=O
For B4, the Kd (soluble human FcRn [9]) was 2.1 µM.

B5: Peptide No. 23 (peptide)
peptide: QRFCTGHFG[dA]LYPCNGP-NH2
modifications: disulfide 4-14 (inferred)
Binder B5 has a Kd (soluble human FcRn [10]) of 184 µM and an IC50 (soluble human FcRn [11]) of 57 µM.

B6: Peptide No. 24 (peptide)
peptide: QRFCTGHF[dA][dA]LYPCNGP-NH2
modifications: disulfide 4-14 (inferred)
Binder B6 has an IC50 (soluble human FcRn [11]) of 69 µM and a Kd (soluble human FcRn [12]) of 22 µM.

B7: Peptide No. 142 (peptide)
peptide: RFXTGHFGPLYPC
modifications: Pen at 3; D-Pro at 9; disulfide; C-terminal amide
In the case of B7, the Kd (soluble human FcRn [13]) is reported as 0.14 µM and the IC50 (soluble human FcRn [14]) is reported as 1.5 µM.

B8: Peptide No. 100 (peptide)
peptide: QRFDTGHFGGLYPKNGP
modifications: also: N-termini joined through a bis-thiol linker (bromoacetylated peptide), bridge as drawn, places not given here
B8 was tested, and the Kd (soluble human FcRn [4]) was 0.006 µM, the IC50 (soluble human FcRn [5]) was 0.76 µM and the Kd (soluble human FcRn [6]) was 0.13 µM.

B9: Peptide No. 140 (peptide)
peptide: QRFXTGHFGGLXPCNGP
modifications: Pen at 4; 4-fluoro-Phe at 12; disulfide; C-terminal amide
In the case of B9, the Kd (soluble human FcRn [15]) is reported as 24 µM and the IC50 (soluble human FcRn [16]) is reported as 26 µM.

B10: Peptide No. 236 (peptide)
peptide: RFVTGHFG[Sar][NMeL]YPA-NH2
modifications: N-terminus assumed
SMILES: CC(C)C[C@@H](C(=O)N[C@@H](Cc1ccc(O)cc1)C(=O)N1CCC[C@H]1C(=O)N[C@@H](C)C(N)=O)N(C)C(=O)CN(C)C(=O)CNC(=O)[C@H](Cc1ccccc1)NC(=O)[C@H](Cc1c[nH]cn1)NC(=O)CNC(=O)[C@@H](NC(=O)[C@@H](NC(=O)[C@H](Cc1ccccc1)NC(=O)[C@@H](N)CCCNC(=N)N)C(C)C)[C@@H](C)O
B10 was tested, and the IC50 (soluble human FcRn [1]) was 37 µM, the Kd (soluble human FcRn [2]) was 9 µM and the IC50 (soluble human FcRn [17]) was 37 µM.

B11: Peptide No. 72 (peptide)
peptide: QRFXTGHFGGLYPENGP
modifications: Dab at 4; side-chain lactam bridge Dab 4-Glu 14; C-terminal amide
B11 gave a Kd (soluble human FcRn [9]) of 4.8 µM and an IC50 (soluble human FcRn [7]) of 81 µM.

B12: Peptide No. 84 (peptide)
peptide: QRFXTGHFGGHYPCNGP
modifications: Pen at 4; disulfide; C-terminal amide
With B12 the Kd (soluble human FcRn [18]) was 2.5 µM and the Kd (soluble human FcRn [19]) was 0.38 µM.

B13: Peptide No. 81 (peptide)
peptide: QRFXTGHFGGLYPDNGP
modifications: Dab at 4; side-chain lactam bridge Dab 4-Asp 14; C-terminal amide
B13 showed a Kd (soluble human FcRn [9]) of 8.4 µM and a Kd (soluble human FcRn [8]) of 45 µM.

B14: Peptide No. 296 (peptide)
peptide: QRF[Pen]HGHFGGLYPCNGP-NH2
modifications: disulfide 4-14; N-terminus assumed
SMILES: CC(C)C[C@@H]1NC(=O)CNC(=O)CNC(=O)[C@H](Cc2ccccc2)NC(=O)[C@H](Cc2c[nH]cn2)NC(=O)CNC(=O)[C@H](Cc2c[nH]cn2)NC(=O)[C@@H](NC(=O)[C@H](Cc2ccccc2)NC(=O)[C@H](CCCNC(=N)N)NC(=O)[C@@H](N)CCC(N)=O)C(C)(C)SSC[C@@H](C(=O)N[C@@H](CC(N)=O)C(=O)NCC(=O)N2CCC[C@H]2C(N)=O)NC(=O)[C@@H]2CCCN2C(=O)[C@H](Cc2ccc(O)cc2)NC1=O
B14 gave an IC50 (soluble human FcRn [20]) of 3 µM, a Kd (soluble human FcRn [21]) of 0.96 µM and a Kd (soluble human FcRn [22]) of 0.15 µM.
